Here are results for 3 molecules from patent US20030092616A1, “STAT6 activation gene” (priority 2001, published 2003).

B1: 50 (nucleic acid, listed as Homo sapiens)
chain: AATTCAACATGGCAGCCATGCGCTGGCGATGGTGGCAGCGGCTGTTACCTTGGAGGTTGCTGCAGGCCCGTGGCTTTCCACAAAATTCTGCACCCAGCCTGGGCCTAAGAGCGAGGACTTATTCCCAGGGCGACTGCTCGTATTCGCGCACGGCGCTGTATGATCTGCTCGGCGTCCCCTCCACAGCCACGCAGGCCCAAATCAAGGCGGCTTACTACCGTCAGTGCTTTCTCTACCACCCGGACCGCAACTCCGGGAGCGCGGAGGCCGCCGAGCGCTTCACGCGCATCTCCCAGGCCTACGTGGTGCTGGGCAGTGCCACCCTCCGTCGCAAGTATGATCGCGGCCTACTCAGCGACGAGGACCTGCGCGGACCTGGCGTCCGGCCCTCCAGGACGCCCGCACCCGACCCCGGCTCGCCGCGTACCCCGCCGCCCACCTCTCGGACCCACGACGGTTCTCGGGCCTCCCCCGGCGCCAACCGCACGATGTTCAACTTTGACGCCTTCTACCAGGCCCACTACGGGGAACAACTGGAGCGGGAACGGCGCCTGAGGGCCCGGCGGGAGGCCCTTCGCAAACGGCAGGAGTATCGGTCCATGAAAGGCCTCCGCTGGGAGGATACCCGAGACACGGCTGCCATTTTCCTCATCTTTTCAATCTTCATCATCATCGGCTTTTATATTTAATCGGAGAGAGAAGGGAAGGGGAGTGTCCCCAGCCAACCCCCCAGAAACGGCCTTTTTTCCTGCCTCTGAACCCTTGGCCGTTGATAGTCTACCTTTGCTGGGATCCGAAGGAACTGTACTCCCCCTGCCCTCCCCGACCCGCCCAGCTTAGCCGATGACCTGCACATCGCTCCACTGTGGTCCAGAAAAGGAGGCCTTTCGATGTCTGAGAAAGAGGCCCCACGCTGTAGAGTCCCGAAAGCCCAGGAGTGAAGGGGGTTCCTGGAGTCTCTAGGGTGCTTCTTCCAGAGTCTGTCTTCTTGCTTCCAGATGTGGTCAACTTCTGGAACACTCGCTGTAGCTTTATTGTTTAGCCCCAAGCAAGATTTATCTCCTCCTGCCCCGCATGTGTATGGTGGGCCTCTGTAACCTTGAAATGTGCAATGTGACCAATTGTTGACTACCAAAAGAAAAGGTCTGGGGTTGT
modifications: CDS (9)..(686)
B2: 56 (nucleic acid, listed as Homo sapiens)
chain: AGAGCCGCCGCCCAGGAAGGGGATGCGGAAACCCCTGGCTCGGTGGAGCGGAGAGGCAGGCGGGCAGGAGCCGAGGACGGCATGTCCCAGGCCCCGGGAGCACAGCCGAGCCCACCCACCGTGTACCACGAACGGCAGCGCCTGGAGCTGTGTGCTGTCCACGCCCTCAACAACGTTCTGCAGCAGCAGCTCTTTAGCCAGGAGGCTGCCGATGAGATCTGCAAGAGGTTGGCCCCAGACTCCCGGCTGAACCCTCATCGCAGCCTCCTGGGCACCGGCAACTATGATGTCAATGTGATCATGGCCGCTCTGCAGGGGCTGGGCCTGGCCGCCGTGTGGTGGGACAGGAGGAGGCCCCTGTCCCAGCTGGCCCTGCCCCAGGTACTGGGGCTGATCCTGAACCTGCCCTCGCCCGTGTCGCTGGGGCTGCTGTCACTGCCGCTGCGCCGGCGGCACTGGGTGGCCCTGCGCCAGGTGGACGGTGTCTACTACAACCTGGACTCCAAGCTGCGGGCGCCCGAGGCCCTGGGGGATGAGGACGGAGTCAGGGCCTTCCTGGCGGCTGCGCTGGCCCAGGGCCTGTGCGAGGTGCTGCTGGTAGTGACCAAGGAGGTGGAGGAGAAGGGCAGCTGGCTGCGGACAGACTGACCATGGCTGACCATCGGCGCCCACAGCGCAGTCCCTGCGCATCCCCCTCCGGCTGCGCACACTGCATGCCTGGGAAAGGCCAGCACTTCATGGACCCTGGGGAGGCCCCGCCCCCTCCCCACACCCCTGCTCCCCACTGCCGCTGCTGCCTCAATAAATCTGCTGATTTGCTGCC
modifications: CDS (82)..(645)
B3: 241 (nucleic acid, listed as Homo sapiens)
chain: GGGGTGTCCAGTTGGTTGCCGCGGCAGTCTCTCCGAGCAGCGCATTTGTCTTCTAGGCTGCTTGGTTCGTGCCTCCGAGAAAGGGGTCTCCTGCTGCCAGCTAAGTGTGGGAGAACTTGTGCACGTATCTCCCCTCCGAATCCCAACGATGGGTAACGCCAGCTTTGGCTCCAAGGAACAGAAGCTGCTGAAGCGGTTGCGGCTTCTGCCCGCCCTGCTTATCCTCCGCGCCTTCAAGCCCCACAGGAAGATCAGAGATTACCGCGTCGTGGTAGTCGGCACCGCTGGTGTGGGGAAAAGTACGCTGCTGCACAAGTGGGCGAGCGGCAACTTCCGTCATGAGTACCTGCCGACCATTGAAAATACCTACTGCCAGTTGCTGGGCTGCAGCCACGGTGTGCTTTCCCTGCACATCACCGACAGCAAGAGTGGCGACGGCAACCGCGCTCTGCAGCGCCACGTTATAGCCCGGGGCCACGCCTTCGTCCTGGTCTACTCAGTCACCAAGAAGGAAACCCTGGAAGAGCTGAAGGCCTTCTATGAGCTGATCTGCAAGATCAAAGGTAACAACCTGCATAAGTTCCCCATCGTGCTGGTGGGCAATAAAAGTGATGACACCCACCGGGAGGTGGCCCTGAATGATGGTGCCACCTGTGCGATGGAGTGGAATTGCGCCTTCATGGAGATTTCAGCCAAGACCGATGTGAATGTGCAGGAGCTGTTCCACATGCTGCTGAATTACAAGAAAAAGCCCACCACCGGCCTCCAGGAGCCCGAGAAGAAATCCCAGATGCCCAACACCACTGAGAAGCTGCTTGACAAGTGCATAATCATGTGAGCCCTGGGCCTTAAGAGCCAGCTCTTCCTATCCTGTAGCGTGTAGAAAACGTGGACTCATTTCACTATGTTACATGTACATGGTTGATTTTGTGCTGTTGTTTGGACTGTAACATCCATGTTGTCAATACGTATACCTTGTAAGTGGATAACTTTTCTTTTTCCCAGGCCAGAGAATTCAAATTGTTAAAACATTGGCATTTGAAGAGGAGAACAAAATGTAGCATGATGTATTTAAAGTAAGGCCTTTAGTAATGAATGTAATGAGAGAAAATGTTTTGAAAAGAACAAAACATCAAAATGAATAGAAAGAAAAATTGGAAGGCGTCCTTTTGGTAACCCGATTATTGTGTATTACCTTTAAATATTTCACATCCTGTAAGTGCTTAATCATATCTTTTAATTGTGTATTTAAGAAAAGTGTTTTCACAACAAAAGCTTTTGATAAATTGCTGCGTGACATATACTAAATAAAAAAATGAATATGTTGATCATTAGGGGTGTGGGAGCAGAGAAAATTGTGAAAGTGACTCTCACTAAAGATGTTAGTAGTTTCTCATGTCATTTAAAAATGTTTGAGTATTCTGCATAGCAGTTTGTAAAAGTGTAACAGCTTATTGACTTAATAAAGCTTTTCCTGCATGC
modifications: CDS (149)..(835)

For this series, the system named is STAT6. The experiment in a line: Screening of full-length cDNA clones for promotion of STAT6 activation (luciferase reporter N4×8-luc). Conditions: NIH3T3 cells cotransfected with N4×8-luc reporter and cDNA plasmid; 48 h culture, then mouse IL-4 0.5 ng/ml for 6 h. The series is classed as cell-based. How it is done:
As a preferable method, NIH3T3 cells are inoculated on 10% FBS (Fetal Bovine Serum)-containing IMDM medium in a 96-well cell culture plate to a final cell density of 1×10^4 cells/well, and cultured for 24 hours at 37° C., in the presence of 5% CO2. Then, the luciferase reporter plasmid N4×8-luc which has a STAT6 response sequence, and the expression vector are cotransfected into the cells in a well using FuGENE 6 (Roche). After 48 hours of culture at 37° C., in the presence of 5% CO2 mouse IL-4 (Immuno Biological Laboratories Co., Ltd.) is added to a final concentration of 0.5 ng/ml. After culturing for further 6 hours, promoting activity for STAT6 activation is then measured by measuring luciferase activity using a long term luciferase assay system, Picagene LT2.0 (Toyo Ink Mfg). For example, luciferase activity can be measured using PerkinElmer's Wallac ARVOTMST 1420 MULTILABEL COUNTER. The method for gene introduction by FuGENE6, and measurement of luciferase activity by Picagene LT2.0 can be performed respectively according to the attached protocols. In a method of gene introduction with a 96-well plate using FuGENE6, the amount of FuGENE6 per 1 well is suitably 0.3 to 0.5 μl, preferably 0.3 μl; the amount of N4×8-luc reporter plasmid is suitably 50 to 100 ng, preferably 100 ng; and the amount of expression vector is suitably 50 to 100 ng, preferably 100 ng. An ability (action) to promote STAT6 activation refers to an ability to increase the reporter activity (luciferase activity) relative to the control experiment (for cells into which the reporter gene and a null vector were introduced). Increase in reporter activity is preferably by a factor of 1.5 or more, more preferably by a factor of 3 or more, and still more preferably by a factor of 6 or more.
NIH3T3 cells (purchased from Dainippon Pharmaceutical) were grown to 1×10^4 cells/well in a 96 well plate for cell culture for 24 hours at 37° C. (in the presence of 5% CO2) using 10% FBS containing IMDM medium. Then, 100 ng of luciferase reporter plasmid N4×8-luc having a STAT6 response sequence and 2 μl of the full-length cDNA prepared in above Example 1.(3) were cotransfected into the cells in a well using FuGENE 6 (purchased from Roche) according to the manufacturer's protocol. The luciferase reporter plasmid N4×8-luc having the STAT6 response sequence was constructed as follows. […] 157, 2058-2065 (1996)], oligonucleotides having the following sequences were synthesized:
The synthesized oligonucleotides were dissolved in sterile water to be 1μg/μl, respectively, mixed in 10 μl lots, and adjusted the volume to 32 μl with sterile water. The solution was heated for 5 min at 90° C., and gradually cooled down to room temperature to prepare a double-stranded oligonucleotide solution. The solution was reacted with T4 polynucleotide kinase (Takara Shuzo) according to the attached manual, then the reaction product was purified in a usual manner. Separately, SV40 promoter region of pGL3-Promoter vector (Promega) was replaced by the HSV thymidine kinase promoter sequence (from −50 to +10) with Hind III site and BglII site to construct a vector tk-luc. The aforesaid double-stranded oligonucleotide fragments were inserted into the XhoI site of this tk-luc vector using T4 DNA ligase (GIBCO/BRL). The obtained clones were sequenced according to a usual method, and clones in which plural oligonucleotide fragments were inserted were selected. […] The four-interlinked DNA fragments were excised from the N4×4-luc with a XhoI and a BglII site and purified to be inserted into a BamHI and a XhoI site of pBluescript II KS+ (Stratagene). The four-interlinked DNA fragments were excised from this plasmid with KpnI and SpeI and inserted into a KpnI and a NheI site of N4×4-luc plasmid to finally obtain N4×8-luc.
As for B1, the “Activity = (luciferase activity of the gene of each SEQ ID NO:)/(luciferase activity of pME18S-FL3)” value worked out at 18.5. On to B2, for which the “Activity = (luciferase activity of the gene of each SEQ ID NO:)/(luciferase activity of pME18S-FL3)” value is 4.7.

With B3, the “Activity = (luciferase activity of the gene of each SEQ ID NO:)/(luciferase activity of pME18S-FL3)” value came to 54.3.
